# Experimental data published in IntAct's records for PubMed 27150041.
# B1: Smu-2 suppressor of mec-8 and unc-52 protein (Caenorhabditis elegans), Q9N4U5 (parent)
# chain: MADNPTNLRNADFRKLLTSARSDRPAVSAFAKPADPKTGDDKPASFKHKHLKPAKFKKPQAAAHGKAKKEKTEADEDEAALKNILKNYRDRAAERRKQGDEKEDPSKLTAAYRAVPGDARSAQDQADLRKQAILESKYLGGDLEHTHLVKGLDYSLLNKVRSEIDKSDDDDDDDIDTAFDEKVTSSSSSSKPSEASLLAQELAQSHSENRMVRSLHRVLFKNEVPLHNQLFAKGRMAYVVELEDEETDIPTTLLRSLHDLPRAESAQSIQANNLIILKLSHVLSHLRAEPKKKKKEEFRVQLGSRDAPGAAAAAPGAKGDSIYDDLDDYVPSRKSRDSRDAGRRGSRRDRSRDRSRDRDRDRDRDNRDRYFEKSANSRREEEQNRREQQRERERAEQERRREREKEREQEKAKEREKKRKELEESSGYDECYPGGLVEMGGAWDSDEEADYSKMDAGPKKNQAVNRWDFDTEEEYASYMEGREALPKAAYQYGVKNGEGGRKNKKQSAVSDAKRLDRELNEINKIMDKRKAGGDGAGGGGDYKKPKY
# Variants of: B1
# Settings: with smu1_caeel smu-1, G5EEG7
# Chain of smu1_caeel smu-1, G5EEG7 (G5EEG7 whole entry): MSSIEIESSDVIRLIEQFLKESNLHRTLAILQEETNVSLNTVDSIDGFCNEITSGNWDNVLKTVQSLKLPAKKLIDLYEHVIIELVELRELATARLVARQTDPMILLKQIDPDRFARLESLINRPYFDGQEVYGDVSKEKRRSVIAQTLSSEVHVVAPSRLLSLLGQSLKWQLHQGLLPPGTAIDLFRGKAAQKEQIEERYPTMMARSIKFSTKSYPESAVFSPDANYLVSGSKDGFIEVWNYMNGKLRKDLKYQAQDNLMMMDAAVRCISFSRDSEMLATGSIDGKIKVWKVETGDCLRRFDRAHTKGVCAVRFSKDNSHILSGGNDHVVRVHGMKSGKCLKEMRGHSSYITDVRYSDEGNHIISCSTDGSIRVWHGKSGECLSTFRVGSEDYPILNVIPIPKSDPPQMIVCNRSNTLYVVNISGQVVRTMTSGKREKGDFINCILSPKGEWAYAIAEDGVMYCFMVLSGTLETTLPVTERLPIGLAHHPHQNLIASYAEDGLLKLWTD
row,effect of a mutation on the interaction,Variant
1,disrupting interaction strength,F220R
2,disrupting interaction strength,V212R
